Consider 8 molecules from patent US20230071422A1 (BEIJING WISDOMAB BIOTECHNOLOGY, published 2023).

For experiment [1], the target named is T1, extracellular region of human CD123 subtype 1 with C-terminal His tag (hCD123-SP1-his) (human (Homo sapiens), UniProt P26951 19-305).
T1 construct: Recombinant, expressed in HEK293 cells
T1 sequence: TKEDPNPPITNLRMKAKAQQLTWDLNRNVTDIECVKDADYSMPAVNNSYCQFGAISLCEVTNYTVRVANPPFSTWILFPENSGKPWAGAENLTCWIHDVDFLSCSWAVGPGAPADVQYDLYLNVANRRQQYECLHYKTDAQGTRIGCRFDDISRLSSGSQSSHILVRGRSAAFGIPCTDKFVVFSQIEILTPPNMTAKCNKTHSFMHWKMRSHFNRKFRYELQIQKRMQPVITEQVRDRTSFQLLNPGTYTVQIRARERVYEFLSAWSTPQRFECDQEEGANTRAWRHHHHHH
Briefly: SPR, Biacore X100; antibody captured by anti-human IgG (Fc), hCD123-SP1-his as analyte, 1:1 model. On the procedure:
(§1) The affinity of anti-CD123 antibodies was determined by surface plasmon resonance using Biacore X100. Related reagents and consumables such as Amino Conjugation Kit (BR-1000-50), Human Antibody Capture Kit (BR-1008-39), CM5 Chip (BR100012) and 10×HBS-EP (BR100669) buffer with pH 7.4 were all purchased from GE healthcare. According to the instructions in the kits, 1-Ethyl-3-(3-dimethylaminopropyl) carbodiimide hydrochloride (EDC) and N-Hydroxysuccinimide (NHS) was used to activate the surface of the carboxylated CM5 chip, and the anti-human IgG (Fc) antibody (capture antibody) was diluted to 25 μg/mL with 10 mM, pH5.0 sodium acetate, followed by an injection with a flow rate at 10 μL/min to achieve a coupling volume of approximately 10,000 response units (RU). Following the injection of the capture antibody, 1 M ethanolamine was injected to block unreacted groups. […] The chip surface was regenerated by injecting 3M MgCl₂ solution at 10 μL/min for 30 s. Association rates (Kₒₙ) and dissociation rates (Koff) were calculated from association and dissociation sensorgrams fitted by a 1:1 binding model using Biacore X100 evaluation software version 2.0.1. The dissociation equilibrium constant (KD) was calculated as the ratio Koff/Kₒₙ.
Background: SPR reads the build-up and loss of mass on a sensor chip optically.

In experiment [2] the target is T2, CD123 on the surface of CD123-positive cells (KG-1a, MV-4-11) (human, UniProt P26951 19-378).
T2 construct: whole, on cells; Endogenous CD123 on KG-1a (human acute myeloid leukemia) and MV-4-11 (human acute monocytic leukemia) cells; also called cell surface CD123 antigen; CD123 on the surface of MV-4-11 cells
The experiment in a line: flow cytometry titration on MV-4-11 cells, goat anti-human IgG-FITC secondary antibody. As for the experimental part: (§2) MV-4-11 cells at the logarithmic phase of growth were used and resuspended to 2×10⁶ cells/well with PBS buffer containing 1% BSA after centrifugation. MV-4-11 cells were plated in a 96-well V-bottom plate at 100 μL/well, and the supernatant was removed after centrifugation. […] The antibodies were added to the wells containing cells and incubated at 4° C. for 1 hour. Then, the plate was washed three times with 200 μL PBS buffer. The goat anti-human IgG-FITC secondary antibody (ZF-0308, ZSGB-BIO) was added to the wells (100 μL/well), and incubated at 4° C. for 30 minutes in the dark. Then, the cells were washed three times with 200 μL of PBS buffer, and resuspended in 100 μL of PBS buffer to detect FITC channel by flow cytometer (ACEA, Novocyte).

The target in experiment [3] is T1, extracellular region of human CD123 …. Briefly: SPR, Biacore X100; antibody captured by anti-human IgG (Fc), hCD123-SP1-his as analyte, 1:1 model. As for the experimental part: as §1
The source holds these as a separate data set.

Experiment [4] addresses T2, CD123 on the surface of CD123-positive …. The experiment in a line: flow cytometry on MV-4-11 cells, titration from 100 nM, goat anti-human IgG-FITC; MV-4-11 cells, flow cytometry titration (apparent KD). As for the experimental part:
as §2, with “MV-4-11” for “MV-4-11 cells at the logarithmic phase of growth were used and resuspended to 2×10⁶ cells/well with PBS buffer containing 1% BSA after centrifugation. MV-4-11”
For orientation: In flow cytometry, cells or beads pass a laser one at a time.

The target in experiment [5] is T3, extracellular region of human CD3E with C-terminal His tag (hCD3E-his) (human (Homo sapiens), UniProt P07766 23-126).
T3 construct: Recombinant, expressed in HEK293 cells
The experiment in a line: SPR, Biacore X100; antibody captured by anti-human IgG (Fc) on CM5, hCD3E-his as analyte, 1:1 model, 25 C. As for the experimental part:
(§3) The chip surface was regenerated by injecting 3M MgCl₂ solution at 10 μL/min for 30 s. Association rates (Kₒₙ) and dissociation rates (Koff) were calculated from association and dissociation sensorgrams fitted by a 1:1 binding model using Biacore X100 evaluation software version 2.0.1. The dissociation equilibrium constant (KD) was calculated as the ratio Koff/Kₒₙ.

For experiment [6], the target named is T3, extracellular region of human CD3E with …. Briefly: SPR, Biacore X100; antibody captured by anti-human IgG (Fc), hCD3E-his as analyte, 1:1 model. As for the experimental part: as §3
Experiment [7] addresses T4, extracellular region of cynomolgus monkey CD3E with C-terminal His tag (mfCD3E-his) (cynomolgus monkey (Macaca fascicularis), UniProt Q95LI5 22-117).
T4 construct: Recombinant, expressed in HEK293 cells
T4 sequence: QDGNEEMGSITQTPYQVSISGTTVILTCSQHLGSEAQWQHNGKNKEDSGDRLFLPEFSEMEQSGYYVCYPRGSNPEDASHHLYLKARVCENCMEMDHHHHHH
The experiment in a line: SPR, Biacore X100; antibody captured by anti-human IgG (Fc), mfCD3E-his as analyte, 1:1 model. As for the experimental part:
as §3

Experiment [8] concerns the target T1, extracellular region of human CD123 …. Briefly: SPR, Biacore X100; antibody captured by anti-human IgG (Fc) on CM5, hCD123-SP1-his as analyte, 1:1 model, 25 C. As for the experimental part: as §1
For experiment [9] the target is unchanged. Briefly: phage display, solid-phase screening on hCD123-SP1-His, three rounds.

Residue numbers refer to the chain shown, from its start.

T3 sequence (P07766 other isoform, or with tags, fused parts or gaps limits assumed): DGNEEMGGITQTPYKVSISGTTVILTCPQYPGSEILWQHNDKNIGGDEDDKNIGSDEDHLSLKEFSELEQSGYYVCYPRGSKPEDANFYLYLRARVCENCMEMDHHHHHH

B1: anti-CD123 monoclonal antibody H7A3-h2-m5+L27E5 (antibody, V domains shown)
VH: QVQLVQSGAEVKKPGASVKVSCKASGYTFTSYDVSWVRQAPGQRLEWMGWVYPVDGSTKFNEKFKGRVTLTADRSSSTAYMELSSLRSEDTAVYYCARLTYGDFGDAMDYWGQGTLVTVSS
VL: DIVMTQTPLSLSVTPGQPASISCKSSQSLVHSNDNTYLTWYLQKPGQSPQLLIYKVSNRFSGVPDRFSGSGSGTDFTLKISRVEAEDVGVYYCGQGTQYPFTFGQGTKLEIK
notes: Expressed as a whole antibody of human IgG1 with the common light chain L27E5; also called H7A3 humanized version H7A3-h2-m5
In the case of B1, the values for the Kd in experiment [1], in experiment [3] and in experiment [4] were 0.22 nM, 0.244 nM and 3.1 nM, respectively. Moreover, the figures for the off-rate constant (koff) in experiment [1] and in [3] were 5.14e-05 s⁻¹ and 7.67e-05 s⁻¹, respectively. In addition, the on-rate (kon) in [1] was 234000 M⁻¹ s⁻¹; in experiment [3] it was 314000 M⁻¹ s⁻¹. In addition, in experiment [2], the “EC50 (read off the curve)” value is ~3 nM.

B2: anti-CD3E monoclonal antibody H3B8+L27E5 (antibody, V domains shown)
VH: EVQLVESGGGLVQPGGSLRLSCAASGFTFSNAWMHWVRQAPGKGLEWVGQIKDKSNNYATYYADAVKGRFTISRDDSKNSLYLQMNSLKTEDTAVYYCRYVHYGVRFFYTMDVWGQGTTVTVSS
VL: B1 VL
notes: captured by an anti-human IgG (Fc) antibody in SPR; also called WM03-C6 humanized monoclonal antibody
In [5], B2 yielded a Kd of 47.6 nM, a koff of 0.000993 s⁻¹ and an on-rate (kon) of 20800 M⁻¹ s⁻¹. Also, in [6], the Kd was determined as 12.7 nM, the off-rate (koff) amounted to 0.000711 s⁻¹ and the kon came to 56100 M⁻¹ s⁻¹. In [7], this molecule came in with a Kd of 5.26 nM, a koff of 0.000649 s⁻¹ and an on-rate constant (kon) of 123000 M⁻¹ s⁻¹.

B3: S8F3VH+L27E5 (antibody, V domains shown)
VH: QVQLQQSGAELAKPGASVKISCKASGYTFTSYDVSWVKQRPGQGLEWIGWVYPVDGSTKFNEKFKGKATLTADRSSSTAYMQLTSLTSEDSAVYFCARLRYGNYGDAMDDWGQGTSVTVSA
VL: B1 VL
notes: built from the label (S8F3VH heavy chain variable region with the L27E5 light chain)
In experiment [1], B3 registered a Kd of 3.32 nM, a dissociation rate constant (koff) of 0.000146 s⁻¹ and an on-rate (kon) of 43800 M⁻¹ s⁻¹.

B4: H7A3+L27E5 (antibody, V domains shown)
VH: B3 VH with R100T, N103D, Y104F, D110Y
VL: B1 VL
notes: Whole antibody: H7A3 variable region fused to a human heavy chain constant region, combined with the L27E5 light chain; also called S8F3 heavy chain mutant H7A3
In the case of B4, in [1], the Kd was 0.246 nM, the koff was 6.64e-05 s⁻¹ and the kon was 270000 M⁻¹ s⁻¹. Further, in experiment [3], the Kd came to 0.226 nM, the off-rate constant (koff) was 6.89e-05 s⁻¹ and the on-rate (kon) was determined as 305000 M⁻¹ s⁻¹.

B5: control bispecific antibody Xmab14045 (bispecific antibody)
heavy: QVQLQQSGAEVKKPGASVKVSCKASGYTFTDYYMKWVKQSHGKSLEWMGDIIPSNGATFYNQKFKGKATLTVDRSTSTAYMELSSLRSEDTAVYYCARSHLLRASWFAYWGQGTLVTVSSASTKGPSVFPLAPSSKSTSGGTAALGCLVKDYFPEPVTVSWNSGALTSGVHTFPAVLQSSGLYSLSSVVTVPSSSLGTQTYICNVNHKPSDTKVDKKVEPKSCDKTHTCPPCPAPPVAGPSVFLFPPKPKDTLMISRTPEVTCVVVDVKHEDPEVKFNWYVDGVEVHNAKTKPREEEYNSTYRVVSVLTVLHQDWLNGKEYKCKVSNKALPAPIEKTISKAKGQPREPQVYTLPPSREEMTKNQVSLTCDVSGFYPSDIAVEWESDGQPENNYKTTPPVLDSDGSFFLYSKLTVDKSRWEQGDVFSCSVMHEALHNHYTQKSLSLSPGK
scFv: not shown
light: not shown
With B5, the Kd in experiment [6] is 0.65 nM; in experiment [7], 0.935 nM.

B6: monoclonal antibody WM03-C6 (antibody, V domains shown)
VH: EVQLVETGENLVQPGKSLRLTCATSGFSFSNAWMHWIRQSPEKQLEWVAQIKDKSNNYATYYAESVNGRFTISRDDSKSSIYLHMDNLKEEDSAIYYCRYVHYGVRFFYTMDVWGQGTSVTVSS
VL: DVVMTQTPVSLSVSLGDQVSISCRPSQSLVHNNGNTYLSWYLQKPGQSPHPLIYKVSNRFSGISDRFSGSGSGTDFTLKISRVEPDDLGVYYCGQGTQYPFTFGSGTKLEIK
notes: also called rat monoclonal antibody WM03-C6; 20E5-F10 of WO 2016/116626 A1
In experiment [5], B6 had a Kd of 10.6 nM, an off-rate (koff) of 0.000288 s⁻¹ and a kon of 27200 M⁻¹ s⁻¹.

B7: S8F3VH+C6VK (antibody, V domains shown)
VH: B3 VH
VL: B6 VL
notes: Whole antibody: variable regions fused to a human heavy chain constant region and a light chain constant region; also called recombinant anti-CD123 monoclonal antibody
Regarding B7, in [8], the Kd worked out at 8.03 nM, the koff turned out to be 0.00365 s⁻¹ and the kon amounted to 455000 M⁻¹ s⁻¹.

B8: anti-human CD123 single chain fragment variable S8F3 (scFv)
scFv: QVQLQQSGAELAKPGASVKISCKASGYTFTSYDVSWVKQRPGQGLEWIGWVYPVDGSTKFNEKFKGKATLTADRSSSTAYMQLTSLTSEDSAVYFCARLRYGNYGDAMDDWGQGTSVTVSAGGGGSGGGGSGGGGSDVVMTQTPVSLSVSLGDQVSISCRPSQSLVHNNGNTYLSWYLQKPGQSPHPLIYKVSNRFSGISDRFSGSGSGTDFTLKISRVEPDDLGVYYCGQGTQYPFTFGSGTKLEIK
As for B8, the binding result in experiment [9] is given as “binds”.

One may read the koff as the rate constant with which the complex falls apart. By kon is commonly meant the rate constant with which the complex forms. The term EC50 (read off the curve) denotes the midpoint of the concentration-response curve.
